As usually defined, the Kd is the concentration at which binding is half-saturated. A lower Kd goes with higher affinity. In general, koff refers to the rate constant with which the complex falls apart. A low value points to slow dissociation. In general, kon refers to the second-order rate constant of association. Low values mean slow association, high ones fast association.

Experiment [1] deals with chimeric hexon of Ad5:H6.2 (Ad5 vector, hexon residues 112-593 from Ad6 hexon, HVR7 IGNTDTF), on the virion (human adenovirus type 5 | human adenovirus type 6) (UniProt P04133). Put plainly: SPR; Biacore T200; about 300 to 5,000 RU of Ad virions immobilised on a CM5 chip, coagulation factors flowed over at four concentrations, 50 uL/min; 10 mM HEPES, 150 mM NaCl, 1 mM CaCl2, 0.5 mM MgCl2, 0.1% BSA, 0.05% polysorbate 20, pH 7.4; global fit to a 1:1 kinetic interaction model, double referencing.

The target of experiment [2] is chimeric hexon of Ad5:H6.3 (Ad5 vector, hexon residues 112-593 from Ad6 hexon, HVR7 IGNTETF), on the virion (human adenovirus type 5 | human adenovirus type 6) (UniProt P04133). The experiment is described as above.
The target of experiment [3] is chimeric hexon of Ad5:H6.4 (Ad5 vector, hexon residues 112-593 from Ad6 hexon, HVR7 IGITDAF), on the virion (human adenovirus type 5 | human adenovirus type 6) (UniProt P04133). The experiment is described as above.
The target of experiment [4] is chimeric hexon of the Ad5 vector Ad5:H1.1 (Ad5 hexon with residues 112-593 from Ad1 hexon, on virions) (human adenovirus 5 | human adenovirus 1) (UniProt P04133). As to the kind of experiment: SPR; Biacore T200; about 300 to 5,000 RU of Ad virions immobilised on a CM5 chip, coagulation factors flowed over at four concentrations, 50 uL/min; running buffer 10 mM HEPES, 150 mM NaCl, 1 mM CaCl2, 0.5 mM MgCl2, 0.1% BSA, 0.05% polysorbate 20, pH 7.4; regeneration with 3 mM EDTA; global fit to a 1:1 kinetic interaction model, double referencing. On the technique in general: Surface plasmon resonance follows binding to a sensor surface in real time, without labels.

For experiment [5], the target named is chimeric hexon of the Ad5 vector Ad5:H1.6 (Ad1 hexon section with HVR7 mutations, on virions) (human adenovirus 5 | human adenovirus 1) (UniProt P04133). Described as above.
The target of experiment [6] is chimeric hexon of the Ad5 vector Ad5:H6.2 (Ad6 hexon section with HVR7 mutations, on virions) (human adenovirus 5 | human adenovirus 6) (UniProt P04133). The description is as above.
For experiment [7], the target named is chimeric hexon of the Ad5 vector Ad5:H6.3 (Ad6 hexon section with HVR7 mutations, on virions) (human adenovirus 5 | human adenovirus 6) (UniProt P04133). The description is as above.
Experiment [8] concerns the target hexon of the Ad5 vector Ad5.10 (Ad5 hexon with HVR1 of Ad6 hexon, on virions) (human adenovirus 5) (UniProt P04133). Described as above.
The target of experiment [9] is hexon of the Ad5 vector Ad5.4 (HVR7 mutant, on virions) (human adenovirus 5) (UniProt P04133). Described as above.
The target of experiment [10] is hexon of the Ad5 vector Ad5.5 (on virions) (human adenovirus 5) (UniProt P04133). The experiment is described as above.

As to “mouse coagulation factor X (from UniProt O88947 41-481) (natural protein)”, the Kd in experiment [1] is 681 nM; in experiment [2], 1200 nM; in [3] it was 0.095 µM; in [4], 0.82 nM; in experiment [5], 4.2 µM; in [6], 681 nM. Further, the Kd worked out at 1200 nM in [7], 0.58 nM in experiment [8], 1.9 nM in experiment [9] and 2.5 nM in experiment [10]. For the same substance, the koff in [4] worked out at 0.000372 s⁻¹; in experiment [5], 0.638 s⁻¹; in [6], 0.121 s⁻¹; in [7], 0.26 s⁻¹; in [8], 0.00014 s⁻¹; in [9], 0.000479 s⁻¹. The same substance gave a koff in experiment [10] of 0.00104 s⁻¹. Further, the kon in experiment [4] was 454000 M⁻¹ s⁻¹; in [5], 152000 M⁻¹ s⁻¹; in experiment [6], 178000 M⁻¹ s⁻¹; in experiment [7], 214000 M⁻¹ s⁻¹; in experiment [8], 240000 M⁻¹ s⁻¹; in [9], 248000 M⁻¹ s⁻¹. The same substance gave an association rate constant (kon) in experiment [10] of 416000 M⁻¹ s⁻¹.

“mouse prothrombin (coagulation factor II) (from UniProt P19221 44-618) (natural protein)”: the Kd in experiment [1] was 560 nM; in [2] it was 1600 nM; in experiment [3] it was 32 µM; in experiment [4], 16 nM; in [6], 560 nM; in [7], 1600 nM. The Kd was determined as 356 nM in experiment [8], 36000 nM in experiment [9] and 216 nM in experiment [10]. The koff in [4] is 0.00118 s⁻¹; in [5], 1.41 s⁻¹; in experiment [6], 0.012 s⁻¹; in [7], 0.0304 s⁻¹; in [8], 0.06 s⁻¹; in experiment [9], 0.281 s⁻¹. Besides, the koff in experiment [10] came out at 0.0676 s⁻¹. In addition, the kon in experiment [4] turned out to be 71600 M⁻¹ s⁻¹; in experiment [6], 21300 M⁻¹ s⁻¹; in experiment [7], 19700 M⁻¹ s⁻¹; in experiment [8], 168000 M⁻¹ s⁻¹; in [9], 7770 M⁻¹ s⁻¹; in experiment [10] it was 314000 M⁻¹ s⁻¹.

Regarding “bovine coagulation factor X (from UniProt P00743 41-492) (natural protein)”, the Kd turned out to be 220 nM in experiment [4], 276 nM in experiment [8], 540 nM in experiment [9] and 438 nM in [10]. Also, the koff was found to be 0.0512 s⁻¹ in experiment [4], 0.151 s⁻¹ in [8], 0.147 s⁻¹ in experiment [9] and 0.169 s⁻¹ in [10]. For the same substance, the kon in experiment [4] amounted to 236000 M⁻¹ s⁻¹; in experiment [8], 549000 M⁻¹ s⁻¹; in [9], 274000 M⁻¹ s⁻¹; in [10], 387000 M⁻¹ s⁻¹.

Take “human coagulation factor X (from UniProt P00742 41-488) (natural protein)”: the Kd turned out to be 300 nM in experiment [4], 1.1 nM in experiment [8], 10 nM in experiment [9] and 5.2 nM in [10]. Further, the koff in [4] came to 0.077 s⁻¹; in [8], 0.000122 s⁻¹; in [9], 0.000338 s⁻¹; in experiment [10], 0.000661 s⁻¹. Further, the kon worked out at 253000 M⁻¹ s⁻¹ in [4], 112000 M⁻¹ s⁻¹ in [8], 33900 M⁻¹ s⁻¹ in experiment [9] and 126000 M⁻¹ s⁻¹ in [10].

The values are drawn from PMC9536601.
